6 substances from paper PMC7271347 can be followed below.

Where two headings read alike, the source gives them in different places.

Common to all, as to experiment: SEC-MALS
In assay [1] the target is λ Ea22(1–182) (bacteriophage λ).
The target of assay [2] is λ Ea22(93–182) (bacteriophage λ).
For assay [3], the target named is λ Ea22(102–182) (bacteriophage λ).
The target of assay [4] is λ Ea22(109–182) (bacteriophage λ).
The target of assay [5] is φ24B Ea22(135–261) (bacteriophage φ24B).
Assay [6] shares this target. The source holds these as a separate data set.
Assay [7] has as its target φP27 Ea22(1–315) (bacteriophage φP27).

The substance λ Ea22(1–182) (natural protein) showed a stoichiometry N in assay [1] of 4.

Take λ Ea22(93–182) (domain or fragment): in assay [2], the stoichiometry N worked out at 2.

Regarding λ Ea22(102–182) (domain or fragment), the stoichiometry N in assay [3] stood at 2.

Regarding λ Ea22(109–182) (domain or fragment), the stoichiometry N in assay [4] was 2.

Consider φ24B Ea22(135–261) (domain or fragment), for which the stoichiometry N amounted to 2 in assay [5] and 4 in assay [6].

On to φP27 Ea22(1–315) (natural protein), for which, in assay [7], the stoichiometry N turned out to be 4.
